Test results taken from FireProtDB (doi:10.1002/pro.5560050915).

Details: Bos taurus; pH 8.5; Thermal; DSC; ascorbate 1 mM; whole UniProt chain shown

B1: Adrenodoxin, mitochondrial wild type, P00257 (protein)
chain: MAARLLRVASAALGDTAGRWRLLARPRAGAGGLRGSRGPGLGGGAVATRTLSVSGRAQSSSEDKITVHFINRDGETLTTKGKIGDSLLDVVVQNNLDIDGFGACEGTLACSTCHLIFEQHIFEKLEAITDEENDMLDLAYGLTDRSRLGCQICLTKAMDNMTVRVPDAVSDARESIDMGMNSSKIE
For B1, the Tm was 51.4 °C, the “heat capacity change of unfolding” value was 1.79 kcal/mol/K and the “unfolding enthalpy (calorimetric)” value was 355 kJ/mol.
